According to patent KR20210010236A (dated 2021):

T1: Full-length(FL)-WRS, human tryptophanyl-tRNA synthetase (NP_004175.2) (human, UniProt P23381 2-471)
T1 construct: In the western blot and immunoprecipitation the target was endogenous WRS in lysates of human cells (HeLa, HCT116, HEK293F); also called Human WRS; TrpRS
T1 sequence: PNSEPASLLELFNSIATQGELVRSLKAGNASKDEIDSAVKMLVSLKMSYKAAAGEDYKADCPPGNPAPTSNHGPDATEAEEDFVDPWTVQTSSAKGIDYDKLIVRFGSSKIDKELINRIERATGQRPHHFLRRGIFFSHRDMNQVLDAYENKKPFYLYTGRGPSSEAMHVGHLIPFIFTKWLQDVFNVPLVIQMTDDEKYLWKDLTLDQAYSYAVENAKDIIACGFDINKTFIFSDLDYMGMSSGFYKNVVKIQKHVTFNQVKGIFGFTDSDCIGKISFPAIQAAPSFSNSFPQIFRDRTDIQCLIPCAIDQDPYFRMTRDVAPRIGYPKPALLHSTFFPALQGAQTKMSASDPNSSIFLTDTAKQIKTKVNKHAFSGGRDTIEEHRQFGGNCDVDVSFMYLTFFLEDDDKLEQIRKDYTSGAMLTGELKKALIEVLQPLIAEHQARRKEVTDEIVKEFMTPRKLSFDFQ

B1: 3C6 scFv (scFv)
scFv: EVQLLESGGGLVQPGGSLRLSCAASGFTFSSYDMSWVRQAPGKGLEWVSAISSGGSSIYYADSVKGRFTISRDNSKNTLYLQMNSLRAEDTAVYYCARDVAWDMLGDFDYWGQGTLVTVSSGGGGSGGGGSGGGGSQSVLTQPPSASGTPGQRVTISCTGSSSNIGSNYVYWYQQLPGTAPKLLIYANSHRPSGVPDRFSGSKSGTSASLAISGLRSEDEADYYCGAWDDSLSAYVFGGGTKLTV
notes: The scFv comes from an HA-tagged human scFv phage library; It was expressed in the E. coli periplasm, purified on Ni-NTA and detected with anti-HA-HRP; also called 3C6 scFv clone
B2: 3C6 IgG 단일클론 항체 (anti-WRS(3C6) IgG) (antibody, V domains shown)
VH: EVQLLESGGGLVQPGGSLRLSCAASGFTFSSYDMSWVRQAPGKGLEWVSAISSGGSSIYYADSVKGRFTISRDNSKNTLYLQMNSLRAEDTAVYYCARDVAWDMLGDFDYWGQGTLVTVSS
VL: QSVLTQPPSASGTPGQRVTISCTGSSSNIGSNYVYWYQQLPGTAPKLLIYANSHRPSGVPDRFSGSKSGTSASLAISGLRSEDEADYYCGAWDDSLSAYVFGGGTKLTV
notes: The variable regions of the 3C6 scFv were converted to IgG (pcDNA3.4 vectors, expressed in HEK293F, purified on protein A); also called 3C6 IgG 항체; WRS(3C6) 항체

What was measured:
[1] = molecular target: T1, Full-length(FL)-WRS, human …; experiment: western blot on HeLa and HCT116 cell lysates, purified scFv detected with anti-HA-HRP
[2] = molecular target: T1, Full-length(FL)-WRS, human …; experiment: cell-based or functional assay
[3] = molecular target: T1, Full-length(FL)-WRS, human …; experiment: SPR (Biacore 2000), FL-WRS immobilised on a CM5 chip, antibody 6.25-100 nM as analyte

Row | Binder | binding result [1] | EC 50 (inhibition of human WRS-induced TNF-α secretion by differentiated THP-1 macrophages) [2] [nM] | Kd [3] [nM] | koff [3] [s⁻¹] | kon [3] [M⁻¹ s⁻¹]
1 | B1 | binds | – | – | – | –
2 | B2 | – | 0.035 | 17.2 | 0.0011 | 64100
